Laboratory results as given in patent US20110311475A1 (published 2011).

T1: IL2 Receptor beta protein (Fc Chimera Active, Abcam plc) (human, UniProt P14784 27-240)
T1 construct: In the assay it was coupled to DyLight 649 conjugated Protein A; also called IL-2Rβ subunit; human Interleukin-2 receptor beta (CD122); Fc part of the bought chimera not given
T1 sequence (looked up): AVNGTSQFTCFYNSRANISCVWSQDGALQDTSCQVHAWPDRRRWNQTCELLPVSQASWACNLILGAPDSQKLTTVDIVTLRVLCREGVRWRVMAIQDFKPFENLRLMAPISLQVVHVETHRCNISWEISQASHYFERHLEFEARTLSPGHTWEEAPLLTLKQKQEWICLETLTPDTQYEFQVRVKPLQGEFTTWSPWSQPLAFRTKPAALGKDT

T2: Recombinant Human IL-4 Rα Fc Chimera protein (R&D Systems) (human, UniProt P24394 26-231)
T2 construct: In the assay it was coupled to DyLight 649 conjugated Protein A; also called IL-4Rα subunit; Fc part of the bought chimera not given
T2 sequence (looked up): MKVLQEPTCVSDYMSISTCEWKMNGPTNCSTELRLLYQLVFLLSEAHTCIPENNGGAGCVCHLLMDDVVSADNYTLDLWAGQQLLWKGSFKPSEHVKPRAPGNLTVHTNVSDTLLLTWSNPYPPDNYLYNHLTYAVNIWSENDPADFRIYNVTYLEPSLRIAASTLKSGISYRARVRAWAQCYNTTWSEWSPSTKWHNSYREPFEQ


Tests used:
[1] = target: T1, IL2 Receptor beta protein (Fc Chimera …); test: bead-based flow cytometric immunoassay, receptor-Fc chimera/Protein A-DyLight 649 (FIG. 19C)
Description: (§1) Both goat anti-human IL-21 and rabbit anti-human IL-21 antibodies were initially tested using a Western blot technique to confirm suitable detection of the IL-21 variant proteins with the predicted size. The success of antibody-to-bead conjugation was verified using PE Goat anti-Rabbit IgG Detector (BD Biosciences). To detect the receptor interaction of bead-captured IL-21 variants with the Interleukin-21 receptor proprietary subunit, the Interleukin-4 receptor alpha subunit, the Interleukin-2 receptor alpha or the Interleukin-2 receptor beta, appropriate receptor-Fc-chimera proteins were coupled with a Protein-A-fluorochrome complex suitable for flow cytometric evaluation. […] 50 μl of antibody-coated beads and serial dilutions of IL-21 variant proteins, with final concentrations ranging from 100 pg/ml to 1 μg/ml, were incubated together with the fluorescence conjugated receptor-chimera-Protein-A complexes in excess in 96-well plates for 3 h on a titer plate shaker. […] Bead particles were discriminated on the basis of size and fluorescence (see FIGS. 19A and B) on a BD FACSCanto II system with BD FACSDiva software (BD Biosciences). […]

[2] = target: T2, Recombinant Human IL-4 Rα Fc Chimera …; test: bead-based flow cytometric immunoassay, receptor-Fc chimera/Protein A-DyLight 649 (FIG. 19D)
Description: as §1

Row | Binder | binding result [1] | binding result [2]
1 | IL-21/IL-2 hybrid protein (ligand, also called IL-21 variant) QGQDRHMIRMRQLIDIVDQLKNYVNDLVPEFLPAPEDVETNCEWSAFSCFQKAQLKSANTGNNERIINVSISNINVIVLELKGSETTFMCDSYEKKPPKEFLERFKSLLQKMIHQHLSSRTHGSEDS | binds | –
2 | IL-21/IL-4 hybrid protein (ligand, also called IL-21/IL-4 hybrid variant; IL-21/IL-4 variant protein) QGQDRHMITLQEIIKTLNSLTEQKTLVPEFLPAPEDVETNCEWSAFSCFQKAQLKSAQQFHRHKQLIRFLKRLDRNLWGLAGLNSCPSCDSYEKKPPKEFLERFKSLLQKMIHQHLSSRTHGSEDS | – | binds
